Laboratory results as given in PMC9371898.

Key:
Experiment in all cases: SEC
[1] = molecular target: Rep1 Triple Mutant (R248A-Y251A-K253A) (Staphylococcus aureus (SaPI1)) (UniProt Q8GNZ1)
[2] = molecular target: PriRep5-ΔCTD (residues 676-790 removed) (Staphylococcus aureus (SaPI5, strain USA300))
[3] = molecular target: PriRep5 K591A (Staphylococcus aureus (SaPI5, strain USA300))

Substance: Rep1 Triple Mutant (R248A-Y251A-K253A) (from UniProt Q8GNZ1 1-66) (natural protein)
- stoichiometry N [1]: 6

Substance: PriRep5-ΔCTD (residues 676-790 removed) (domain or fragment)
- stoichiometry N [2]: 6

Substance: PriRep5 K591A (natural protein)
- stoichiometry N [3]: 6
